Assay results published in PMC11109247 (Nature Communications, 2024).
Several values for one entry are separate records, joined by “and”; a condition that tells them apart may be missing. Equal values may be shown once.

Tests used:
[1] = biological target: the molecule itself; experiment: SDS-PAGE without reduction and boiling
[2] = biological target: T1, soluble NiVMY G ectodomain used for structural determination (residues 72-602, His tag) (Nipah virus Malaysia (NiVMY), UniProt Q9IH62); experiment: cryo-EM structure; details: both partners purified
T1 construct: source: Expi293F, transient transfection, purified

NiVBD G ectodomain = NiVBD G ectodomain (Nipah virus, Bangladesh (GenBank …, UniProt Q4VCP5, strain)); experiment: cell-based or functional assay
NiVMY G ectodomain = NiVMY G ectodomain (Nipah virus, Malaysia (GenBank …, UniProt E2II03)); experiment: cell-based or functional assay
HeV G ectodomain = HeV G ectodomain (Hendra virus (isolate …, UniProt O89343)); experiment: cell-based or functional assay
HeV G ectodomain (Hendra virus, sequence (O89343 71-604): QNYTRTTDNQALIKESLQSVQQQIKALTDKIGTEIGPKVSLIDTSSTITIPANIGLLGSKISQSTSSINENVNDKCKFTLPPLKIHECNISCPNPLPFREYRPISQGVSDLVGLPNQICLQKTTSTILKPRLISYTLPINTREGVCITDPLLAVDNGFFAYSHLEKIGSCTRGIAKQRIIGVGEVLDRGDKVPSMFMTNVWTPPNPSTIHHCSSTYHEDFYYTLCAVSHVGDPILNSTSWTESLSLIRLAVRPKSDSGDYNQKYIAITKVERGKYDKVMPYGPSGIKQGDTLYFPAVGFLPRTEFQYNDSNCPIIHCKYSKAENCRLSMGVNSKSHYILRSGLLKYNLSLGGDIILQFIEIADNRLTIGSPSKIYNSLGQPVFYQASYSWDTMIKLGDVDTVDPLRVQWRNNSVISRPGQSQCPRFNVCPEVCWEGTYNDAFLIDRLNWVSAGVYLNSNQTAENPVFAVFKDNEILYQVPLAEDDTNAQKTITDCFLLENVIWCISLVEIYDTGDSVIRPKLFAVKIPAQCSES

B1: NiVMY G ectodomain (residues 72-602), His-tagged, used for structural determination (domain or fragment)
chain: NYTRSTDNQAVIKDALQGIQQQIKGLADKIGTEIGPKVSLIDTSSTITIPANIGLLGSKISQSTASINENVNEKCKFTLPPLKIHECNISCPNPLPFREYRPQTEGVSNLVGLPNNICLQKTSNQILKPKLISYTLPVVGQSGTCITDPLLAMDEGYFAYSHLERIGSCSRGVSKQRIIGVGEVLDRGDEVPSLFMTNVWTPPNPNTVYHCSAVYNNEFYYVLCAVSTVGDPILNSTYWSGSLMMTRLAVKPKSNGGGYNQHQLALRSIEKGRYDKVMPYGPSGIKQGDTLYFPAVGFLVRTEFKYNDSNCPITKCQYSKPENCRLSMGIRPNSHYILRSGLLKYNLSDGENPKVVFIEISDQRLSIGSPSKIYDSLGQPVFYQASFSWDTMIKFGDVLTVNPLVVNWRNNTVISRPGQSQCPRFNTCPEICWEGVYNDAFLIDRINWISAGVFLDSNQTAENPVFTVFKDNEILYRAQLASEDTNAQKTITNCFLLKNKIWCISLVEIYDTGDNVIRPKLFAVKIPEQCT
stoichiometry N [1]: 4 and 2

B2: 1E5 Fab (Fab, V domains shown)
VH: QVQLQESGPGVVKPSETLSLTCAVSGGSISDTYRWSWIRQPPGKGLEWIGYIYGSATSTYYNPSLSSRVTISKDMSKNQFSLNLNSVTAADTAVYYCARDYQYYYSGSYPTPHNWFDVWGPGVLVTVSS
VL: DIQMTQSPSSLSASVGDRVTITCRASQGIIDYLSWYQQKPGKAPKLLISTASNLESGVPSRFSGSGSGTEFTLTISSLQPEDFATYSCLQGYTTPYTFGQGTKVEIK
notes: source: Expi293F, transient transfection, purified
binding result [2]: binds

B3: 1E5 (antibody, V domains shown)
VH: B2 VH
VL: B2 VL
IC50 of neutralisation of authentic NiV-BD (plaque reduction; Fig. 2o) (NiVBD G ectodomain): 0.0125 µg/mL | IC50 of neutralisation of authentic NiV-MY (plaque reduction; Fig. 2o) (NiVMY G ectodomain): 0.012 µg/mL | IC50 of neutralisation of authentic HeV (plaque reduction; Fig. 2o) (HeV G ectodomain): 0.147 µg/mL
